The chains are these.
B1: mouse mGluR6 (metabotropic glutamate receptor 6), wild type, complex N-glycosylated form (upper dimer band, band C) [modified: complex N-glycosylation (Endo H-resistant, PNGase F-sensitive); N-glycosylation sites N290, N445 … (parent)
chain 1: AGSVRLAGGLTLGGLFPVHARGAAGRACGTLKKEQGVHRLEAMLYALDRINADPELLPGVRLGARLLDTCSRDTYALEQALSFVQALIRGRGDGEEASVRCPGGVPPLRAAPPERVVAVVGASASSVSIMVANVLRLFAIPQISYASTAPELSDSTRYDFFSRVVPPDSYQAQAMVDIVRALGWNYVSTLASEGNYGESGVEAFVQISREAGGVCIAQSIKIPREPKPGEFHKVIRRLMETPNARGIIIFANEDDIRRVLEATRQANLTGHFLWVGSDSWGSKISPILNLEEEAVGAITILPKRASIDGFDQYFMTRSLENNRRNIWFAEFWEENFNCKLTSSGGQSDDSTRKCTGEERIGQDSTYEQEGKVQFVIDAVYAIAHALHSMHQALCPGHTGLCPAMEPTDGRTLLHYIRAVRFNGSAGTPVMFNENGDAPGRYDIFQYQATNGSASSGGYQAVGQWAEALRLDMEALQWSGDPHEVPPSQCSLPCGPGERKKMVKGVPCCWHCEACDGYRFQVDEFTCEACPGHMRPTPNHTGCRPTPVVRLTWSSPWAALPLLLAVLGIMATTTIIATFMRHNDTPIVRASGRELSYVLLTGIFLIYAITFLMVAEPCAAVCASRRLLLGLGTTLSYSALLTKTNRIYRIFEQGKRSVTPPPFISPTSQLVITFGLTSLQVVGVIAWLGAQPPHSVIDYEEQRTVDPEQARGVLKCDMSDLSLIGCLGYSLLLMVTCTVYAIKARGVPETFNEAKPIGFTMYTTCIIWLAFVPIFFGTAQSAEKIYIQTTTLTVSLSLSASVSLGMLYVPKTYVILFHPEQNVQKRKRSLKKTSTMAAPPKSENSEDAK
chain 2: QGDCWLIEGDKGFVWLAICSQNQPPYEAIPQQINNTIVDLRLNENRIRSVQYASLSRFGNLTYLNLTKNEIGYIEDGAFSGQFNLQVLQLGYNRLRNLTEGMLRGLSKLEYLYLQANLIEVVMASAFWECPNIVNIDLSMNRIQQLGSGTFAGLTKLSVCEIYSNPFYCSCELLGFLRWLAAFTNATQTHDRVQCESPPVYAGYFLLGQGRHGHQRSILSKLQSVCTEGSYTAEVLGPPRPVPGRSQPGHSPPPPPPEPSDMPCADDECFSGDGTTPLVILTTLVPQTEARPSMKVKQLTQNSATIMVQLPSPFNRMYTLEQYNNSKSFTVSKLTQPQEEIRLTNLYTLTNYTYCVVSTSSGTHHNHTCLTICLPKPPSPPGPVPSPSTATHY
B2: mouse mGluR6 (metabotropic glutamate receptor 6), wild type, complex N-glycosylated form (upper dimer band, band C) [modified: complex N-glycosylation (Endo H-resistant, PNGase F-sensitive); N-glycosylation sites N290, N445 … (parent)
chain 1: B1 chain 1
chain 2: DCWLIEGDKGYVWLAICSQNQPPYETIPQHINSTVHDLRLNENKLKAVLYSSLNRFGNLTDLNLTKNEISYIEDGAFLGQTSLQVLQLGYNRLSNLTEGMLRGMSRLQFLFVQHNLIEVVTPTAFSECPSLISIDLSSNRLSRLDGATFASLASLMVCELAGNPFNCECDLFGFLAWLVVFNNVTKNYDRLQCESPREFAGYPLLVPRPYHSLNAITVLQAKCRNGSMPARPVSHPTPYSTDAQREPDENSGFNPDEILSVEPPASSTTDASAGPAIKLHQVTFTSATLVVIIPHPYSKMYVLVQYNNSYFSDVMTLKNKKEIVTLDKLRAHTEYTFCVTSLRNSRRFNHTCLTFTTRDLVPGDLAPSTSTTTHY

In the first experiment the parent is B1. Description: pull-down. The settings on record: with ELFN1 extracellular domain fused to human Fc [mouse]; parent: 1; read off a plot.
For chain 1 N422Q, the ratio to parent was 0.05.

On to chain 1 N450Q, for which the ratio to parent was 0.6.

With chain 1 N267Q, the ratio to parent came to 0.59.

Take chain 1 N538Q: the ratio to parent was found to be 0.13.

The same experiment, now with this note: with ELFN1 extracellular domain fused to human Fc [mouse]; five times more transfected cells were used for 4Q; parent: 1; read off a plot.
With chain 1 N267Q N422Q N450Q N538Q, the ratio to parent was found to be 0.04.

A further experiment covers variants of B2. The experiment can be described thus: pull-down. The settings on record: with ELFN2 extracellular domain fused to human Fc [mouse]; parent: 1; read off a plot.
Turning to chain 1 N450Q, the ratio to parent is 0.32.

As to chain 1 N267Q, the ratio to parent came out at 0.52.

For the variant chain 1 N538Q, the ratio to parent was determined as 0.32.

For the variant chain 1 N422Q, the ratio to parent worked out at 0.04.

For the origin of these results see paper PMC10973816.
